Patent publication US20250145694A1 (GUANGDONG FEIPENG BIOLOGICAL, published 2025)

B1: Mutation 2 (antibody)
heavy: EVQMVESGGGLLKPGGSLKLSCAASGFTYSNYAMSWVRQTPEKRLEWVATISTGGSYSYYPDSVKGRFTISRDNAKNTLYLQMLSLRSEDTAMYYCARRDNYYGSTFMDYWGQGSSVTVSSAKTTPPSVYPLAPGSAAQTNSMVTLGCLVKGYFPEPVTVTWNSGSLSSGVHTFPAVLQSDLYTLSSSVTVPSSTWPSQTVTCNVAHPASSTKVDKKIVPRDCGCKPCICTVPEVSSVFIFPPKPKDVLTITLTPKVTCVVVDISKDDPEVQFSWFVDDVEVHTAQTKPREEQFNSTFRSVSELPIMHQDWLNGKEFKCRVNSAAFPAPIEKTISKTKGRPKAPQVYTIPPPKEQMAKDKVSLTCMITNFFPEDITVEWQWNGQPAENYKNTQPIMDTDGSYFVYSKLNVQKSNWEAGNTFTCSVLHEGLHNHHTEKSLSHSPG
light: DIQMTQTSSSLSASLGDRVTISCRASQDITQYLNWYQQKPDGTIKLLIYYTSRIHSGVSSRFSGSGSGTDYSLTISNLEQEDIATYFCQQGNTIPLTFDTGTKLELKRADAAPTVSIFPPSSEQLTSGGASVVCFLNNFYPKDINVKWKIDGSERQNGVLNSWTDQDSKDSTYSMSSTLTLTKDEYERHNSYTCEATHKTSTSPIVKSFNRNEC
notes: assembled FR/CDR/constant
B2: Mutation 4 (antibody)
heavy: EVQMVESGGGLLKPGGSLKLSCAASGFTYSNYAMSWVRQTPEKRLEWVATISSGGSYSYYPDSVKGRFTISRDNAKNTLYLQMLSLRSEDTAMYYCARKDNYYGSTFMDYWGQGSSVTVSSAKTTPPSVYPLAPGSAAQTNSMVTLGCLVKGYFPEPVTVTWNSGSLSSGVHTFPAVLQSDLYTLSSSVTVPSSTWPSQTVTCNVAHPASSTKVDKKIVPRDCGCKPCICTVPEVSSVFIFPPKPKDVLTITLTPKVTCVVVDISKDDPEVQFSWFVDDVEVHTAQTKPREEQFNSTFRSVSELPIMHQDWLNGKEFKCRVNSAAFPAPIEKTISKTKGRPKAPQVYTIPPPKEQMAKDKVSLTCMITNFFPEDITVEWQWNGQPAENYKNTQPIMDTDGSYFVYSKLNVQKSNWEAGNTFTCSVLHEGLHNHHTEKSLSHSPG
light: DIQMTQTSSSLSASLGDRVTISCRASQDITQYLNWYQQKPDGTIKLLIYYSSRIHSGVSSRFSGSGSGTDYSLTISNLEQEDIATYFCQQGNTIPLTFDTGTKLELKRADAAPTVSIFPPSSEQLTSGGASVVCFLNNFYPKDINVKWKIDGSERQNGVLNSWTDQDSKDSTYSMSSTLTLTKDEYERHNSYTCEATHKTSTSPIVKSFNRNEC
notes: light chain unchanged from WT; heavy chain assembled FR/CDR/constant
B3: Mutation 3 (antibody)
heavy: EVQMVESGGGLLKPGGSLKLSCAASGFTYSNYAMSWVRQTPEKRLEWVATISSGGSYSYYPDSVKGRFTISRDNAKNTLYLQMLSLRSEDTAMYYCARKDNYYGSTFMDYWGQGSSVTVSSAKTTPPSVYPLAPGSAAQTNSMVTLGCLVKGYFPEPVTVTWNSGSLSSGVHTFPAVLQSDLYTLSSSVTVPSSTWPSQTVTCNVAHPASSTKVDKKIVPRDCGCKPCICTVPEVSSVFIFPPKPKDVLTITLTPKVTCVVVDISKDDPEVQFSWFVDDVEVHTAQTKPREEQFNSTFRSVSELPIMHQDWLNGKEFKCRVNSAAFPAPIEKTISKTKGRPKAPQVYTIPPPKEQMAKDKVSLTCMITNFFPEDITVEWQWNGQPAENYKNTQPIMDTDGSYFVYSKLNVQKSNWEAGNTFTCSVLHEGLHNHHTEKSLSHSPG
light: DIQMTQTSSSLSASLGDRVTISCRASQDITNYLNWYQQKPDGTIKLLIYYSSRIHSGVSSRFSGSGSGTDYSLTISNLEQEDIATYFCQQGNTIPLTFDTGTKLELKRADAAPTVSIFPPSSEQLTSGGASVVCFLNNFYPKDINVKWKIDGSERQNGVLNSWTDQDSKDSTYSMSSTLTLTKDEYERHNSYTCEATHKTSTSPIVKSFNRNEC
notes: assembled FR/CDR/constant

Key:
[1] = molecular target: T1, CTNI quality control recombinant antigen (human, UniProt P19429 1-210, limits assumed); assay: indirect ELISA, cTnI coated 1 ug/ml, antibody 0.051 ng/ml
T1 construct: Recombinant antigen produced by the applicant; also called CTNI quality control recombinant protein (antigen produced by the company); cardiac troponin I
Procedure: (§1) CTNI quality control recombinant antigen was diluted to 1 μg/ml with a coating solution and coated a microplate, 100 μL per well, overnight at 4° C.; on the next day, the microplate was washed with a washing solution twice and patted dry; a blocking solution (20% of BSA+80% of PBS) was added, 120 μL per well, 37° C., 1 h, patted dry; the diluted cTnI monoclonal antibodies were added, 100 μL/well, 37° C., 30 min; the microplate was washed with a washing solution 5 times, patted dry; goat anti-mouse IgG-HRP, 100 μL per well, 37° C., 30 min; the microplate was washed with a washing solution 5 times, patted dry; a color-developing solution A (50 μL/well) was added, a color-developing solution B (50 μL/well) was added, 10 min; a stop solution was added, 50 μL/well; OD values were read on microplate reader at 450 nm (reference, 630 nm).

[2] = molecular target: T1, CTNI quality control recombinant antigen; assay: indirect ELISA, cTnI coated 1 ug/ml, antibody 0.152 ng/ml
Procedure: as §1

[3] = molecular target: T1, CTNI quality control recombinant antigen; assay: indirect ELISA, cTnI coated 1 ug/ml, antibody 0.457 ng/ml
Procedure: as §1

[4] = molecular target: T1, CTNI quality control recombinant antigen; assay: indirect ELISA, cTnI coated 1 ug/ml, antibody 1.372 ng/ml
Procedure: as §1

[5] = molecular target: T1, CTNI quality control recombinant antigen; assay: indirect ELISA, cTnI coated 1 ug/ml, antibody 4.115 ng/ml
Procedure: as §1

[6] = molecular target: T1, CTNI quality control recombinant antigen; assay: indirect ELISA, cTnI coated 1 ug/ml, antibody 12.346 ng/ml
Procedure: as §1

[7] = molecular target: T1, CTNI quality control recombinant antigen; assay: indirect ELISA, cTnI coated 1 ug/ml, antibody 0 ng/ml (blank)
Procedure: as §1

T1 sequence (P19429 whole entry): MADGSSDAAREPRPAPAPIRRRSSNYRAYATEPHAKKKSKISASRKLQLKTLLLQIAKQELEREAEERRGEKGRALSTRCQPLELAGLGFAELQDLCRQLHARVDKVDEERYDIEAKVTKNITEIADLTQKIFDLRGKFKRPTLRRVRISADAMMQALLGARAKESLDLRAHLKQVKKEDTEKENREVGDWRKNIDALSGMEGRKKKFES

Binder | OD450 (reference 630 nm) [1] [OD] | OD450 (reference 630 nm) [2] [OD] | OD450 (reference 630 nm) [3] [OD] | OD450 (reference 630 nm) [4] [OD] | OD450 (reference 630 nm) [5] [OD] | OD450 (reference 630 nm) [6] [OD] | OD450 (reference 630 nm) [7] [OD]
B1 | 0.058 | 0.072 | 0.248 | 0.728 | 1.44 | 1.95 | 0
B2 | 0.061 | 0.069 | 0.098 | 0.208 | 0.456 | 1.21 | 0.029
B3 | 0.049 | 0.068 | 0.172 | 0.479 | 1.04 | 1.78 | 0.011
